Changes are numbered by the printed parent chain.
B1: COS0637pHv3-TT91R (antibody, V domains shown)
VH: QVQLVESGGGVVQPGRSLRLSCAASGFTFSAYAMNWIRQPPGKGLEWIGLIYGSGHEFYASWAEERVTISVDTSKNQFSLKLSSVTAADTAVYYCARGRSKNYVSGFHLWGQGTLVTVSS
VL: DIQMTQSPSSLSASVGDRVTITCQASQILHDKKNLAWYQQKPGQPPKLLIYQASQLESGVPSRFSGSGSGTDFTLTISSLQPEDFATYYCHGEFSYESADLNQFGQGTKVEIKR
B2: COS0637pHv5-TT91R (antibody, V domains shown)
VH: B1 VH with T28S
VL: B1 VL with Q27G, Q52G, S98E, Q103T
B3: recombinant human C1r2s2 tetramer (other)
chain 1: EPTMYGEILSPNYPQAYPSEVEKSWDIEVPEGYGIHLYFTHLDIELSENCAYDSVQIISGDTEEGRLCGQRSSNNPHSPIVEEFQVPYNKLQVIFKSDFSNEERFTGFAAYYVATDINECTDFVDVPCSHFCNNFIGGYFCSCPPEYFLHDDMKNCGVNCSGDVFTALIGEIASPNYPKPYPENSRCEYQIRLEKGFQVVVTLRREDFDVEAADSAGNCLDSLVFVAGDRQFGPYCGHGFPGPLNIETKSNALDIIFQTDLTGQKKGWKLRYHGDPMPCPKEDTPNSVWEPAKAKYVFRDVVQITCLDGFEVVEGRVGATSFYSTCQSNGKWSNSKLKCQPVDCGIPESIENGKVEDPESTLFGSVIRYTCEEPYYYMENGGGGEYHCAGNGSWVNEVLGPELPKCVPVCGVPREPFEEKQRIIGGSDADIKNFPWQVFFDNPWAGGALINEYWVLTAAHVVEGNREPTMYVGSTSVQTSRLAKSKMLTPEHVFIHPGWKLLEVPEGRTNFDNDIALVRLKDPVKMGPTVSPICLPGTSSDYNLMDGDLGLISGWGRTEKRDRAVRLKAARLPVAPLRKCKEVKVEKPTADAEAYVFTPNMICAGGEKGMDSCKGDSGGAFAVQDPNDKTKFYAAGLVSWGPQCGTYGLYTRVKNYVDWIMKTMQENSTPRED
chain 2: SIPIPQKLFGEVTSPLFPKPYPNNFETTTVITVPTGYRVKLVFQQFDLEPSEGCFYDYVKISADKKSLGRFCGQLGSPLGNPPGKKEFMSQGNKMLLTFHTDFSNEENGTIMFYKGFLAYYQAVDLDECASRSKLGEEDPQPQCQHLCHNYVGGYFCSCRPGYELQEDRHSCQAECSSELYTEASGYISSLEYPRSYPPDLRCNYSIRVERGLTLHLKFLEPFDIDDHQQVHCPYDQLQIYANGKNIGEFCGKQRPPDLDTSSNAVDLLFFTDESGDSRGWKLRYTTEIIKCPQPKTLDEFTIIQNLQPQYQFRDYFIATCKQGYQLIEGNQVLHSFTAVCQDDGTWHRAMPRCKIKDCGQPRNLPNGDFRYTTTMGVNTYKARIQYYCHEPYYKMQTRAGSRESEQGVYTCTAQGIWKNEQKGEKIPRCLPVCGKPVNPVEQRQQIIGGQKAKMGNFPWQVFTNIHGRGGGALLGDRWILTAAHTLYPKEHEAQSNASLDVFLGHTNVEELMKLGNHPIRRVSVHPDYRQDESYNFEGDIALLELENSVTLGPNLLPICLPDNDTFYDLGLMGYVSGFGVMEEKIAHDLRFVRLPVANPQACENWLRGKNRMDVFSQNMFCAGHPSLKQDACQGDAGGVFAVRDPNTDRWVATGIVSWGIGCSRGYGFYTKVLNYVDWIKKEMEEED
notes: C1s and C1r co-expressed in HEK293/FreeStyle 293-F and purified from conditioned medium
B4: IPN009VH2VK3-SG1148 (antibody, human IgG1, kappa, V domains shown)
VH: EVMLVESGGGLVKPGGSLRLSCAASGFTFSNYAMSWVRQAPGKGLEWVATISSGGSHTYYLDSVKGRFTISRDNSKDTLYLQMNSLRAEDTALYYCARLFTGYAMDYWGQGTLVTVSS
VL: QIVLTQSPATLSLSPGERATLSCTASSSVSSSYLHWYQQKPGKAPKLWIYSTSNLASGVPSRFSGSGSGTDYTLTISSLQPEDFATYYCHQYYRLPPITFGQGTKLEIKR
notes: also called anti-human C1r2s2 antibody

Tests used:
[1] = biological target: B3; assay: SPR (BIACORE T200), 37 C, ratio of KD at pH 5.8 to KD at pH 7.4
Method: (§1) KD (dissociation constant) value of each samples at pH 7.4 and pH 5.8 are determined at 37 degrees C. using BIACORE® T200 instrument (GE Healthcare). Purified Mouse Anti-Human Ig kappa Light Chain (GE Healthcare) can be immobilized onto all flow cells of a CMS sensor chip using an amine coupling kit (GE Healthcare). 20 mM ACES, 150 mM NaCl, 1.2 mM CaCl2, 1 mg/mL BSA (IgG-free), 1 mg/mL CMD, 0.05% Tween® 20, 0.005% NaN3, pH 7.4 or pH 5.8 buffer were used as running buffer. Each antibody can be captured onto the sensor surface by Anti-Human Ig kappa Light chain. Antibody capture levels are aimed at 50 resonance unit (RU). […] Sensor surface is regenerated each cycle with, e.g., Glycine pH 2.0 (GE Healthcare). KD values were obtained using BIACORE® T200 Evaluation software, version 2.0 (GE Healthcare).

[2] = biological target: B3; assay: SPR (BIACORE T200), 37 C, Ab captured via anti-human Ig kappa, human C1r2s2 as analyte, pH 7.4; pH 7.4, 37 C
Method: as §1

[3] = biological target: B3; assay: SPR (BIACORE T200), 37 C, Ab captured via anti-human Ig kappa, human C1r2s2 as analyte, pH 5.8; pH 5.8 (acidic buffer), 37 C; antibody engineered for pH-dependent binding
Method: as §1

[4] = biological target: B3; assay: SPR (BIACORE T200), 37 C, Ab captured via anti-human Ig kappa, human C1r2s2 as analyte, pH 7.4; pH 7.4, 37 C; kinetic KD, C1r2s2 up to 100-400 nM
Method: as §1

[5] = biological target: T1, native human C1q (CompTech) (human, UniProt P02745 23-245; P02746 28-253; P02747 29-245); assay: SPR (BIACORE T200), human C1r2s2 captured by immobilised IPN009VH2Vk3-SG1148, native human C1q injected at about 100 nM, pH 7.4, 37 C
T1 construct: the subunit make-up A/B/C is from general knowledge
T1 sequence (P02745 23-245 limits assumed, chain 1 of 3): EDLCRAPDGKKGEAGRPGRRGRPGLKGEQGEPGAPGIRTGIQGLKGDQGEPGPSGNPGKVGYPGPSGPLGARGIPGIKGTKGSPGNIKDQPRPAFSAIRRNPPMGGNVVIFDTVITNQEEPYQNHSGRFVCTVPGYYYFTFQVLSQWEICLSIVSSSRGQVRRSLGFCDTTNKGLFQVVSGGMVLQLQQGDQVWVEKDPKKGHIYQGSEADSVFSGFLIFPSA
T1 sequence (P02746 28-253 limits assumed, chain 2 of 3): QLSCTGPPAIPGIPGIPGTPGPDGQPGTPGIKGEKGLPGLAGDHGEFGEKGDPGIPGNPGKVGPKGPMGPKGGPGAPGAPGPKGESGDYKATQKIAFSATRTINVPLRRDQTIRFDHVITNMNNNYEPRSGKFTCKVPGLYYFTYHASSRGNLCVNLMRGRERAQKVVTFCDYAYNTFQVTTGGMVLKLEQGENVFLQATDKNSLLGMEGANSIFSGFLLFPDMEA
T1 sequence (P02747 29-245 limits assumed, chain 3 of 3): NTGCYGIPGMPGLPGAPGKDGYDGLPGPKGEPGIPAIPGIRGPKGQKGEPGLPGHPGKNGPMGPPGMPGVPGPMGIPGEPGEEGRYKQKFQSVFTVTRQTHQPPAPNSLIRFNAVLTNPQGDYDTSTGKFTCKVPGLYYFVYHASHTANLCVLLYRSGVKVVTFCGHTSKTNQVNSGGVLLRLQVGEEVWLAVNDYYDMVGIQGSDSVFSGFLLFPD
Excerpt: (§2) Recombinant human C1r2s2 tetramer was first captured onto the sensor surface by the anti-C1r2s2 antibody. The capture levels were aimed at 200 resonance unit (RU). […] The sensor surface was regenerated each cycle with 3 M MgCl2. Sensorgrams were obtained using BIACORE® T200 Evaluation software, version 2.0 (GE Healthcare). […] For comparison of these sensorgrams, binging response of C1r2s2 was normalized as 100 RU. […] For comparison of these sensorgrams, baseline (before injecting antibodies) was adjusted to 0 RU.

[6] = biological target: B3; assay: SPR (BIACORE T200), IPN009VH2Vk3-SG1148 immobilised on the chip, human C1r2s2 injected for capture, pH 7.4, 37 C
Excerpt: as §2

Binder: B1
KD (pH 5.8)/KD (pH 7.4) [1]: 278
Kd [2]: 7.66 nM
Kd [3]: 2130 nM

Binder: B2
Kd [4]: 6.43 nM

Binder: B3
binding result [5]: binds

Binder: B4
binding result [6]: binds

— patent publication US20240092889A1 (Chugai, published 2024)
